# Test results taken from publication PMC6232587, “Human RNA cap1 methyltransferase CMTr1 cooperates with RNA helicase DHX15 to modify RNAs with highly structured 5′ termini” (Philosophical Transactions of the Royal Society B: …, 2018).
# B1: Recombinant DHX15 with His-tag (enzyme, human, UniProt O43143 1-795, looked up)
# chain: MSKRHRLDLGEDYPSGKKRAGTDGKDRDRDRDREDRSKDRDRERDRGDREREREKEKEKELRASTNAMLISAGLPPLKASHSAHSTHSAHSTHSTHSAHSTHAGHAGHTSLPQCINPFTNLPHTPRYYDILKKRLQLPVWEYKDRFTDILVRHQSFVLVGETGSGKTTQIPQWCVEYMRSLPGPKRGVACTQPRRVAAMSVAQRVADEMDVMLGQEVGYSIRFEDCSSAKTILKYMTDGMLLREAMNDPLLERYGVIILDEAHERTLATDILMGVLKEVVRQRSDLKVIVMSATLDAGKFQIYFDNCPLLTIPGRTHPVEIFYTPEPERDYLEAAIRTVIQIHMCEEEEGDLLLFLTGQEEIDEACKRIKREVDDLGPEVGDIKIIPLYSTLPPQQQQRIFEPPPPKKQNGAIGRKVVVSTNIAETSLTIDGVVFVIDPGFAKQKVYNPRIRVESLLVTAISKASAQQRAGRAGRTRPGKCFRLYTEKAYKTEMQDNTYPEILRSNLGSVVLQLKKLGIDDLVHFDFMDPPAPETLMRALELLNYLAALNDDGDLTELGSMMAEFPLDPQLAKMVIASCDYNCSNEVLSITAMLSVPQCFVRPTEAKKAADEAKMRFAHIDGDHLTLLNVYHAFKQNHESVQWCYDNFINYRSLMSADNVRQQLSRIMDRFNLPRRSTDFTSRDYYINIRKALVTGYFMQVAHLERTGHYLTVKDNQVVQLHPSTVLDHKPEWVLYNEFVLTTKNYIRTCTDIKPEWLVKIAPQYYDMSNFPQCEAKRQLDRIIAKLQSKEYSQY
# notes: ATP-dependent RNA helicase DHX15, human, from the full-length cDNA, cloned into pET28; The cloning paragraph says C-terminal His-tag; also called His-DHX15; DHX15 helicase; not shown: His-tag, C-terminal, kept
# B2: CMTr1 full-length, purified from insect cells (enzyme, human, UniProt Q8N1G2 1-835, looked up)
# chain: MKRRTDPECTAPIKKQKKRVAELALSLSSTSDDEPPSSVSHGAKASTTSLSGSDSETEGKQHSSDSFDDAFKADSLVEGTSSRYSMYNSVSQKLMAKMGFREGEGLGKYSQGRKDIVEASSQKGRRGLGLTLRGFDQELNVDWRDEPEPSACEQVSWFPECTTEIPDTQEMSDWMVVGKRKMIIEDETEFCGEELLHSVLQCKSVFDVLDGEEMRRARTRANPYEMIRGVFFLNRAAMKMANMDFVFDRMFTNPRDSYGKPLVKDREAELLYFADVCAGPGGFSEYVLWRKKWHAKGFGMTLKGPNDFKLEDFYSASSELFEPYYGEGGIDGDGDITRPENISAFRNFVLDNTDRKGVHFLMADGGFSVEGQENLQEILSKQLLLCQFLMALSIVRTGGHFICKTFDLFTPFSVGLVYLLYCCFERVCLFKPITSRPANSERYVVCKGLKVGIDDVRDYLFAVNIKLNQLRNTDSDVNLVVPLEVIKGDHEFTDYMIRSNESHCSLQIKALAKIHAFVQDTTLSEPRQAEIRKECLRLWGIPDQARVAPSSSDPKSKFFELIQGTEIDIFSYKPTLLTSKTLEKIRPVFDYRCMVSGSEQKFLIGLGKSQIYTWDGRQSDRWIKLDLKTELPRDTLLSVEIVHELKGEGKAQRKISAIHILDVLVLNGTDVREQHFNQRIQLAEKFVKAVSKPSRPDMNPIRVKEVYRLEEMEKIFVRLEMKIIKGSSGTPKLSYTGRDDRHFVPMGLYIVRTVNEPWTMGFSKSFKKKFFYNKKTKDSTFDLPADSIAPFHICYYGRLFWEWGDGIRVHDSQKPQDQDKLSKEDVLSFIQMHRA
# Legend:
# [1] = biological target: B2; assay: pull-down; purified His-DHX15 and CMTr1 mixed in BDHX buffer (20 mM Tris-HCl pH 8, 70 mM KCl, 3 mM MgCl2, 5 mM DTT, 100 µM ATP), on ice for 10 min; complexes captured on nickel-charged agarose beads; conditions: both partners purified
# [2] = biological target: B1; assay: cell-based or functional assay
Binder,binding result [1],"CMTr1 methyltransferase activity towards RNA92 and RNA68 substrates with equimolar DHX15, in comparison with CMTr1 alone [2]"
B1,binds,–
B2,–,> 3 fold
